These results are taken from US20210246166A1 (Bayer, published 2021).

Numbered stars: 1 amine (or outer) side, 2 acyl side, 3 side chain; on linkers, the order of the positions; unused ones are H or OH. Bridge positions count the residues as written; N and C are the ends. Square brackets hold non-standard residues; d marks the D form. Ends that are not written are not given here. X17 = 2‑((1S,2S)-1-(Amino)-2-methylbutyl)‑1,3‑oxazole‑4‑carboxylic acid, CC[C@H](C)[C@H](N[*:1])c1nc(C(=O)[*:2])co1; PEG9(31 atoms) = 1-amino-3,6,9,12,15,18,21,24,27-nonaoxatriacontan-30-oic acid; Pro(4-spirocPr) = O=C(O)[C@@H]1CC2(CC2)CN1; Oic = O=C(O)[C@@H]1C[C@@H]2CCCC[C@@H]2N1; NMeI = CC[C@H](C)[C@H](NC)C(=O)O; tBuAla = CC(C)(C)C[C@H](N)C(=O)O; PEG4 = NCCOCCOCCOCCOCCC(=O)O; Pen = CC(C)(S)[C@H](N)C(=O)O; NMeC = CN[C@@H](CS)C(=O)O; NMeA = CN[C@@H](C)C(=O)O; Abu = CC[C@H](N)C(=O)O; Sar = CNCC(=O)O

The target of assay [1] is T1, recombinant human MASP1 active protease (amino acids 297-699, C-terminal His Tag) (human, UniProt P48740 297-699).
T1 sequence: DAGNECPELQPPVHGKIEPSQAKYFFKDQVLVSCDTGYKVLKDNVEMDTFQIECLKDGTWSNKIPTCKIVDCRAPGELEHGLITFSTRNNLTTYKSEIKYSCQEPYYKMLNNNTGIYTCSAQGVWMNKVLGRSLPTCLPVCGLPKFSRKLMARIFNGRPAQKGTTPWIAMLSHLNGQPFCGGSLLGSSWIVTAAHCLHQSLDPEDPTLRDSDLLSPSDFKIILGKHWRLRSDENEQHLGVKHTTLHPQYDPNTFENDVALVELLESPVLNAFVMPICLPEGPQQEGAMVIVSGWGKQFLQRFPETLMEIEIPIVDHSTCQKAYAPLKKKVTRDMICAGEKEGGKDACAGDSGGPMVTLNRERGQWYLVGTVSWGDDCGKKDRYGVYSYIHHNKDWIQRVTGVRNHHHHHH
Briefly: cell-based or functional assay.

Assay [2] concerns the target recombinant human MASP2 active protease (amino acids 297-686, C-terminal His Tag) (human, UniProt O00187 297-686). Briefly: cell-based or functional assay.

Sequence of recombinant human MASP2 active protease (amino acids 297-686, C-terminal His Tag) (O00187 other isoform, or with tags, fused parts or gaps limits assumed): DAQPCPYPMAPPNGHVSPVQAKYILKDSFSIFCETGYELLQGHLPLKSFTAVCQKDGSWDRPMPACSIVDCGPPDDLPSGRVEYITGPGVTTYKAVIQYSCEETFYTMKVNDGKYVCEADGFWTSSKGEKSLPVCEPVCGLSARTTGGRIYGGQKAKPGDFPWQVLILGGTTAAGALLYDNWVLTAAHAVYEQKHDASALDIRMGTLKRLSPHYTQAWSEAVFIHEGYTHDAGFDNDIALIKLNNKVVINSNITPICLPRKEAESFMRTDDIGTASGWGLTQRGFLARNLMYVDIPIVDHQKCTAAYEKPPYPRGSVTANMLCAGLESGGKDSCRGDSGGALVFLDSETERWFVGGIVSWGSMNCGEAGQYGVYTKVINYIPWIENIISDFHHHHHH

B1: A-(Abu)-C+SRS-((tBu)A)-PPI-(Pen)+IPD-NH2 (peptide)
peptide: A[Abu]CSRS[tBuAla]PPI[Pen]IPD-NH2
modifications: disulfide 3-11; N-terminus assumed
SMILES: CC[C@H](NC(=O)[C@H](C)N)C(=O)N[C@H]1CSSC(C)(C)[C@@H](C(=O)N[C@H](C(=O)N2CCC[C@H]2C(=O)N[C@@H](CC(=O)O)C(N)=O)[C@@H](C)CC)NC(=O)[C@H]([C@@H](C)CC)NC(=O)[C@@H]2CCCN2C(=O)[C@@H]2CCCN2C(=O)[C@H](CC(C)(C)C)NC(=O)[C@H](CO)NC(=O)[C@H](CCCNC(=N)N)NC(=O)[C@H](CO)NC1=O
For the molecule B1, the “human MASP1 IC50” value in assay [1] was 3.7 nM. Besides, the “human MASP2 IC50” value in assay [2] was found to be 68 nM.

B2: AIC+SRSLP-(Oic)-IC+IPD-OH (peptide)
peptide: AICSRSLP[Oic]ICIPD-OH
modifications: disulfide 3-11; N-terminus assumed
SMILES: CC[C@H](C)[C@H](NC(=O)[C@H](C)N)C(=O)N[C@H]1CSSC[C@@H](C(=O)N[C@H](C(=O)N2CCC[C@H]2C(=O)N[C@@H](CC(=O)O)C(=O)O)[C@@H](C)CC)NC(=O)[C@H]([C@@H](C)CC)NC(=O)[C@@H]2C[C@@H]3CCCC[C@@H]3N2C(=O)[C@@H]2CCCN2C(=O)[C@H](CC(C)C)NC(=O)[C@H](CO)NC(=O)[C@H](CCCNC(=N)N)NC(=O)[C@H](CO)NC1=O
Turning to B2, in assay [1], the “human MASP1 IC50” value worked out at 4.65 nM. Also, the “human MASP2 IC50” value in assay [2] worked out at 316 nM.

B3: ((N-Me)G)-IC+SRS-((tBu)A)-PPI-(Pen)+IP-(PEG3(16atoms))-NH2 (peptide)
peptide: [Sar]ICSRS[tBuAla]PPI[Pen]IP[PEG4]-NH2
modifications: disulfide 3-11; N-terminus assumed
SMILES: CC[C@H](C)[C@H](NC(=O)CNC)C(=O)N[C@H]1CSSC(C)(C)[C@@H](C(=O)N[C@H](C(=O)N2CCC[C@H]2C(=O)NCCOCCOCCOCCOCCC(N)=O)[C@@H](C)CC)NC(=O)[C@H]([C@@H](C)CC)NC(=O)[C@@H]2CCCN2C(=O)[C@@H]2CCCN2C(=O)[C@H](CC(C)(C)C)NC(=O)[C@H](CO)NC(=O)[C@H](CCCNC(=N)N)NC(=O)[C@H](CO)NC1=O
B3: the “human MASP1 IC50” value in assay [1] was 1.3 nM. The “human MASP2 IC50” value in assay [2] was 28 nM.

B4: AIC+SRSLP-((6S)-5-Azaspiro[2.4]heptane-6-carboxylic acid)-I-(Pen)+IPD-NH2 (peptide)
peptide: AICSRSLP[Pro(4-spirocPr)]I[Pen]IPD-NH2
modifications: disulfide 3-11; N-terminus assumed
SMILES: CC[C@H](C)[C@H](NC(=O)[C@H](C)N)C(=O)N[C@H]1CSSC(C)(C)[C@@H](C(=O)N[C@H](C(=O)N2CCC[C@H]2C(=O)N[C@@H](CC(=O)O)C(N)=O)[C@@H](C)CC)NC(=O)[C@H]([C@@H](C)CC)NC(=O)[C@@H]2CC3(CC3)CN2C(=O)[C@@H]2CCCN2C(=O)[C@H](CC(C)C)NC(=O)[C@H](CO)NC(=O)[C@H](CCCNC(=N)N)NC(=O)[C@H](CO)NC1=O
Consider B4, for which the “human MASP1 IC50” value in assay [1] stood at 1.33 nM. Besides, the “human MASP2 IC50” value in assay [2] came to 18 nM.

B5: RIC+SRS-((tBu)A)-PPI-((N-Me)C)+IPD-NH2 (peptide)
peptide: RICSRS[tBuAla]PPI[NMeC]IPD-NH2
modifications: disulfide 3-11; N-terminus assumed
SMILES: CC[C@H](C)[C@H](NC(=O)[C@@H](N)CCCNC(=N)N)C(=O)N[C@H]1CSSC[C@@H](C(=O)N[C@H](C(=O)N2CCC[C@H]2C(=O)N[C@@H](CC(=O)O)C(N)=O)[C@@H](C)CC)N(C)C(=O)[C@H]([C@@H](C)CC)NC(=O)[C@@H]2CCCN2C(=O)[C@@H]2CCCN2C(=O)[C@H](CC(C)(C)C)NC(=O)[C@H](CO)NC(=O)[C@H](CCCNC(=N)N)NC(=O)[C@H](CO)NC1=O
Regarding B5, the “human MASP1 IC50” value in assay [1] is 1.36 nM. In assay [2], the “human MASP2 IC50” value was found to be 100 nM.

On to [Sar]ICSRSLP[Oic]I[Pen]IP[PEG9(31 atoms)]-NH2 (disulfide 3-11) [((N-Me)G)-IC+SRSLP-(Oic)-I-(Pen)+IP-(PEG9(31 atoms))-NH2], for which, in assay [1], the “human MASP1 IC50” value is 3.7 nM. For the same molecule, in assay [2], the “human MASP2 IC50” value was 100 nM.

B6: AIC+SRS-((tBu)A)-PPI-((N-Me)C)+(2-[(1S,2S)-1-(Amino)-2-methylbutyl]-1,3-oxazole-4-carboxylic acid)-D-NH2 (peptide)
peptide: AICSRS[tBuAla]PPI[NMeC][X17]D-NH2
modifications: disulfide 3-11; N-terminus assumed
SMILES: CC[C@H](C)[C@H](NC(=O)[C@H](C)N)C(=O)N[C@H]1CSSC[C@@H](C(=O)N[C@H](c2nc(C(=O)N[C@@H](CC(=O)O)C(N)=O)co2)[C@@H](C)CC)N(C)C(=O)[C@H]([C@@H](C)CC)NC(=O)[C@@H]2CCCN2C(=O)[C@@H]2CCCN2C(=O)[C@H](CC(C)(C)C)NC(=O)[C@H](CO)NC(=O)[C@H](CCCNC(=N)N)NC(=O)[C@H](CO)NC1=O
On to B6, for which the “human MASP1 IC50” value in assay [1] is 1.4 nM. The “human MASP2 IC50” value in assay [2] was 720 nM.

B7: ((N-Me)A)-IC+SRSLP-(Oic)-I-(Pen)+I-NH2 (peptide)
peptide: [NMeA]ICSRSLP[Oic]I[Pen]I-NH2
modifications: disulfide 3-11; N-terminus assumed
SMILES: CC[C@H](C)[C@H](NC(=O)[C@H]1NC(=O)[C@H]([C@@H](C)CC)NC(=O)[C@@H]2C[C@@H]3CCCC[C@@H]3N2C(=O)[C@@H]2CCCN2C(=O)[C@H](CC(C)C)NC(=O)[C@H](CO)NC(=O)[C@H](CCCNC(=N)N)NC(=O)[C@H](CO)NC(=O)[C@@H](NC(=O)[C@@H](NC(=O)[C@H](C)NC)[C@@H](C)CC)CSSC1(C)C)C(N)=O
With B7, the “human MASP1 IC50” value in assay [1] was 3.75 nM. Moreover, the “human MASP2 IC50” value in assay [2] was determined as 195 nM.

B8: ((N-Me)G)-((N-Me)I)-C+SRS-((tBu)A)-PPI-(Pen)+IP-NH2 (peptide)
peptide: [Sar][NMeI]CSRS[tBuAla]PPI[Pen]IP-NH2
modifications: disulfide 3-11; N-terminus assumed
SMILES: CC[C@H](C)[C@@H]1NC(=O)[C@@H]2CCCN2C(=O)[C@@H]2CCCN2C(=O)[C@H](CC(C)(C)C)NC(=O)[C@H](CO)NC(=O)[C@H](CCCNC(=N)N)NC(=O)[C@H](CO)NC(=O)[C@@H](NC(=O)[C@H]([C@@H](C)CC)N(C)C(=O)CNC)CSSC(C)(C)[C@@H](C(=O)N[C@H](C(=O)N2CCC[C@H]2C(N)=O)[C@@H](C)CC)NC1=O
Regarding B8, in assay [1], the “human MASP1 IC50” value stood at 3.7 nM. Besides, in assay [2], the “human MASP2 IC50” value is 590 nM.

[2‑(Pyrrolidine)acetyl]ICSRS[tBuAla]PPI[Pen]IPD-NH2 (disulfide 3-11) [(2-(Pyrrolidine)acetyl)-IC+SRS-((tBu)A)-PPI-(Pen)+IPD-NH2]: the “human MASP1 IC50” value in assay [1] is 1.3 nM. Further, the “human MASP2 IC50” value in assay [2] worked out at 87 nM.

B9: TIC+SRS-((tBu)A)-PPI-(Pen)+IPD-OH (peptide)
peptide: TICSRS[tBuAla]PPI[Pen]IPD-OH
modifications: disulfide 3-11; N-terminus assumed
SMILES: CC[C@H](C)[C@H](NC(=O)[C@@H](N)[C@@H](C)O)C(=O)N[C@H]1CSSC(C)(C)[C@@H](C(=O)N[C@H](C(=O)N2CCC[C@H]2C(=O)N[C@@H](CC(=O)O)C(=O)O)[C@@H](C)CC)NC(=O)[C@H]([C@@H](C)CC)NC(=O)[C@@H]2CCCN2C(=O)[C@@H]2CCCN2C(=O)[C@H](CC(C)(C)C)NC(=O)[C@H](CO)NC(=O)[C@H](CCCNC(=N)N)NC(=O)[C@H](CO)NC1=O
With B9, in assay [1], the “human MASP1 IC50” value was 3.7 nM. For the same molecule, the “human MASP2 IC50” value in assay [2] came to 56 nM.

B10: AIC+SRS-((tBu)A)-P-(Oic)-I-(Pen)+IPD-OH (peptide)
peptide: AICSRS[tBuAla]P[Oic]I[Pen]IPD-OH
modifications: disulfide 3-11; N-terminus assumed
SMILES: CC[C@H](C)[C@H](NC(=O)[C@H](C)N)C(=O)N[C@H]1CSSC(C)(C)[C@@H](C(=O)N[C@H](C(=O)N2CCC[C@H]2C(=O)N[C@@H](CC(=O)O)C(=O)O)[C@@H](C)CC)NC(=O)[C@H]([C@@H](C)CC)NC(=O)[C@@H]2C[C@@H]3CCCC[C@@H]3N2C(=O)[C@@H]2CCCN2C(=O)[C@H](CC(C)(C)C)NC(=O)[C@H](CO)NC(=O)[C@H](CCCNC(=N)N)NC(=O)[C@H](CO)NC1=O
B10: the “human MASP1 IC50” value in assay [1] is 1.3 nM. Also, the “human MASP2 IC50” value in assay [2] worked out at 62 nM.
